# Experimental data reported in paper PMC11656211.
# Ends that are not written are not given here.
# B1: HiLyte Fluor 488-labeled GK-1 (peptide)
# peptide: GYYYPSDPNTFYAPPYSA
# modifications: also: HiLyte Fluor 488 label, position not given here
# Target: TLR4/MD2 complex on HEK293-hTLR4-MD2-CD14 cells (human) (UniProt O00206)
binder,measurement,value
B1,"uptake of GK-1-HF488 (MFI by flow cytometry after trypsin treatment), HEK293-TLR4 cells against HEK293-null cells, 1 h at 4 °C, 5 to 50 uM",5 fold
same,"uptake of GK-1-HF488 (MFI by flow cytometry after trypsin treatment), HEK293-TLR4 cells against HEK293-null cells, 1 h at 37 °C, 5 to 50 uM",< 30 fold
